Consider two molecules from paper PMC8338941, “Puf6 primes 60S pre-ribosome nuclear export at low temperature”.

In series [1] the target is T1, Puf6-PUM (Saccharomyces cerevisiae, UniProt Q04373 161-656). Kind of series: fluorescence anisotropy; 27 C; buffer promoting tertiary contact; Anisotropy: 2.5 nM Cy5-RNA, 0.16 nM-20 uM protein, 27 C (stated for H68), buffer composition not in the material; FRET: 20 mM HEPES pH 7.4, 100 mM K+ (116 mM KCl in the supplement), 0-100 mM Mg2+. The note with it: protein: recombinant; (pET47-Puf6 (161-656)); label: Cy5 (sCy5); hairpin with GAAA tetraloop. (Polarisation of emitted light reports the rotation of a fluorescent probe.)

The target in series [2] is T1, Puf6-PUM. Kind of series: fluorescence anisotropy; buffer promoting tertiary contact; Anisotropy: 2.5 nM Cy5-RNA, 0.16 nM-20 uM protein, 27 C (stated for H68), buffer composition not in the material; FRET: 20 mM HEPES pH 7.4, 100 mM K+ (116 mM KCl in the supplement), 0-100 mM Mg2+. The note with it: protein: recombinant; (pET47-Puf6 (161-656)); label: Cy5 (sCy5; sCy3 in the FRET construct); three hairpins, H22-H88 kissing loop, GAAA tetraloop docking.

T1 sequence (Q04373 161-656): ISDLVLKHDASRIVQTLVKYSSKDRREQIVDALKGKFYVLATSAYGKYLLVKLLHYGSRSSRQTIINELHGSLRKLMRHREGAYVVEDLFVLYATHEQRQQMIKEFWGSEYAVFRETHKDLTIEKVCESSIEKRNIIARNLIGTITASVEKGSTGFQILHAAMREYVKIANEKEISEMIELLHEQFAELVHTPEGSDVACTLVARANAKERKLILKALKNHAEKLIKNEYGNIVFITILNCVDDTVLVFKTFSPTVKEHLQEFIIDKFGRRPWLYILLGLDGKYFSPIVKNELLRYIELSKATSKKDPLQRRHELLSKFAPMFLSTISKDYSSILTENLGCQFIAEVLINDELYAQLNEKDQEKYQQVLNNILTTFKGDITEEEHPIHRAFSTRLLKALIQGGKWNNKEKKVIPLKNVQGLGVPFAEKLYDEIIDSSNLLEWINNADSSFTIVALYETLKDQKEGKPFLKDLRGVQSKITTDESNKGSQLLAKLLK

As to UGAAGAAAUUCA (structured_RNA) [H68 RNA], the Kd in series [1] was ~10 µM.

B1: KL-TLGAAA (H68-H88-H22 RNA), Cy5 (structured_RNA)
RNA: UGAAGAAAUUCAAAAAAAAAGCUCGGAAUUUGAGCAAAAAAAAAAAACGGUGGUAAAUUCCAUCG
Take B1: the equilibrium dissociation constant (Kd) in series [2] is ~125 nM.

Broadly, the Kd is the free concentration of one partner at which half of the binding sites on the other are occupied at equilibrium, for simple one-to-one binding.
